Consider eight molecules from publication PMC4919518.

Data set [1] has as its target T1, RsAgo WT (Rhodobacter sphaeroides (ATCC 17025D-5), UniProt A4WYU7 1-777).
T1 sequence: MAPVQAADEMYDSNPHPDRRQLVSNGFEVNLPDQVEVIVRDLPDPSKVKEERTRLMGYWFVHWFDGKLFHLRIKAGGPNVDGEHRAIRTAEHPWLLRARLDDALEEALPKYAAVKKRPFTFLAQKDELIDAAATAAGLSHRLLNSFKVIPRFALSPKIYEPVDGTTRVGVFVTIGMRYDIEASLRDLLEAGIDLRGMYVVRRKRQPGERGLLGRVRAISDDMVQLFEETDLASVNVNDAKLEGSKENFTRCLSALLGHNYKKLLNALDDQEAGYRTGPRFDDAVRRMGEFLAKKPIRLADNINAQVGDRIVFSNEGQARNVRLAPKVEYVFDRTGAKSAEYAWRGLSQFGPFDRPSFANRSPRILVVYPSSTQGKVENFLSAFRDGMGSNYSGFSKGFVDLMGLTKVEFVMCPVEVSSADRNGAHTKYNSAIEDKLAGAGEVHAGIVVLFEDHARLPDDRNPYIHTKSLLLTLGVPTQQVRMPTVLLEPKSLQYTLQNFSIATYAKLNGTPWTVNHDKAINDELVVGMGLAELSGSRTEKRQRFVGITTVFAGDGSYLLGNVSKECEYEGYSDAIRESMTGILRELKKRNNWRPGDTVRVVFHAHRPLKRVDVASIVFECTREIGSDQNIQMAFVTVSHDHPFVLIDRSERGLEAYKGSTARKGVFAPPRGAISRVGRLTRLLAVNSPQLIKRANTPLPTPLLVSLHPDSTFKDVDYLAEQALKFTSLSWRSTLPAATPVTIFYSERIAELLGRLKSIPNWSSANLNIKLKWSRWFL
As to the kind of experiment: fluorescence polarization; 5 mM Mg2+; FP: 20 mM HEPES-KOH pH 7.5, 200 mM NaCl, 5 mM MgCl2, 0.01 mg/ml E. coli total tRNA, 0.01% NP-40, 10 pM probe, 25 C; EMSA: 20 mM HEPES-KOH pH 7.5, 200 mM NaCl, 5. In general terms: Fluorescence polarisation rises when a labelled molecule tumbles more slowly, as on binding a larger partner.

The target of data set [2] is T2, RsAgo delP45-W63 (Rhodobacter sphaeroides (ATCC 17025D-5), UniProt A4WYU7 1-777, del45-63).
T2 sequence: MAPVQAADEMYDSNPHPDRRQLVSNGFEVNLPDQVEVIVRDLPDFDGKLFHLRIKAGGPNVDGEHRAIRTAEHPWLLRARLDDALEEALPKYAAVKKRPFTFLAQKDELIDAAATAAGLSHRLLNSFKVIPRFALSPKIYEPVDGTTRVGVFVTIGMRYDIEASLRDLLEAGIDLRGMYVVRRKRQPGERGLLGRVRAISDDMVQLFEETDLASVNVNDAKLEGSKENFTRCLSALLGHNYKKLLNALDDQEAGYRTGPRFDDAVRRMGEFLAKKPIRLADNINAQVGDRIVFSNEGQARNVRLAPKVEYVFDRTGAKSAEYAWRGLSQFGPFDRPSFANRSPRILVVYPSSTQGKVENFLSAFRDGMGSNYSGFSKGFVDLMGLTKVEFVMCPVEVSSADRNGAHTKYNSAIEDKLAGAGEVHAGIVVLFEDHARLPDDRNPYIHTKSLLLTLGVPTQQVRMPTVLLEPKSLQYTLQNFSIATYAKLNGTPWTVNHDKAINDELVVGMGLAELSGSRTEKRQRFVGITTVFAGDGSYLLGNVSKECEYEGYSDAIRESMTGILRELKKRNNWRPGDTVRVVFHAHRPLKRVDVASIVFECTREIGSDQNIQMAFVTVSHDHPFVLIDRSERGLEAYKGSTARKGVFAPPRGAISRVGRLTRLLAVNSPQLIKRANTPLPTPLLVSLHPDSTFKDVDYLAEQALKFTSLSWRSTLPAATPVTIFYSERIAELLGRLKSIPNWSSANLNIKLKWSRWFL
As to the kind of experiment: EMSA; RsAgo-guide RNA complex titrated on target DNA; FP: 20 mM HEPES-KOH pH 7.5, 200 mM NaCl, 5 mM MgCl2, 0.01 mg/ml E. coli total tRNA, 0.01% NP-40, 10 pM probe, 25 C; EMSA: 20 mM HEPES-KOH pH 7.5, 200 mM NaCl, 5. For orientation: In EMSA bound probe runs differently from free probe, usually more slowly.

Data set [3] concerns the target T1, RsAgo WT. As to the kind of experiment: EMSA; 5 mM Mg2+; FP: 20 mM HEPES-KOH pH 7.5, 200 mM NaCl, 5 mM MgCl2, 0.01 mg/ml E. coli total tRNA, 0.01% NP-40, 10 pM probe, 25 C; EMSA: 20 mM HEPES-KOH pH 7.5, 200 mM NaCl, 5.
Data set [4] addresses T3, RsAgo delN20 (Rhodobacter sphaeroides (ATCC 17025D-5), UniProt A4WYU7 21-777, del1-20).
T3 sequence: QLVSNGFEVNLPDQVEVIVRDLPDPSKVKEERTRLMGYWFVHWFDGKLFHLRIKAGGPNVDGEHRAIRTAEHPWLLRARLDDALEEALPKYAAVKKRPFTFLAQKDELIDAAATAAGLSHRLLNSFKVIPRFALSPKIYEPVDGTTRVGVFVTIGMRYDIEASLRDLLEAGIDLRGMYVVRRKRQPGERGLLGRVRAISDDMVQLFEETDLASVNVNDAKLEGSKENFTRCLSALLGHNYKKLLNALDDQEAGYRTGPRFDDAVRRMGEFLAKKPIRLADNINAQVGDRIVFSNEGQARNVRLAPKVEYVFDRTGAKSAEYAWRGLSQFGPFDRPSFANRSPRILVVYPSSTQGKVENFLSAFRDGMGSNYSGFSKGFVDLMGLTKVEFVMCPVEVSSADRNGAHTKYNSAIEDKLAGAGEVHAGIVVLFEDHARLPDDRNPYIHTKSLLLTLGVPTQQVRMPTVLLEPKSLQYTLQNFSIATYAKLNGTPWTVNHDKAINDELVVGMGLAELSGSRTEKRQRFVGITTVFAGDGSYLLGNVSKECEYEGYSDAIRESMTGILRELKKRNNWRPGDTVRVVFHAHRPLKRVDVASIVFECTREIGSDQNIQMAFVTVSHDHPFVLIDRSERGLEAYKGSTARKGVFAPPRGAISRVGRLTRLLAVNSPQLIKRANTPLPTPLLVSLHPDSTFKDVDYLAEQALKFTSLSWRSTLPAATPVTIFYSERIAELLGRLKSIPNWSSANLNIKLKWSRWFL
As to the kind of experiment: X-ray crystal structure (2 A); Mg2+ at guide phosphates 1 and 3 and L777 carboxylate; FP: 20 mM HEPES-KOH pH 7.5, 200 mM NaCl, 5 mM MgCl2, 0.01 mg/ml E. coli total tRNA, 0.01% NP-40, 10 pM probe, 25 C; EMSA: 20 mM HEPES-KOH pH 7.5, 200 mM NaCl, 5.

B1: 5'A-RNA, FAM (ssRNA)
RNA: AUACAACCUACUACCUCG
modifications: 5'-phosphate
For orientation: Kd means the concentration at which binding is half-saturated. Read a low Kd as higher affinity. On to B1, for which the Kd in data set [1] was 24.8 ± 1.7 nM.

B2: guide 5'P-RNA + 70-base target DNA (DNA:RNA)
RNA: UUACAACCUACUACCUCG
DNA: TAAAATCTTAAAGTTATTATTTCTATACGAGGTAGTAGGTTGTAATTATCACAATTTATAGTAGTATTAA
modifications: 5'-phosphate on guide
Regarding B2, the binding result in data set [2] is recorded as “no binding”.

B3: 5'P-RNA/DNA (RR/DD) (DNA:RNA)
RNA: UUACAACCUACUACCUCG
DNA: CGAGGTAGTAGGTTGTAA
modifications: 5'-phosphate on guide
With B3, the binding result in data set [3] is “binds”.

B4: 18-nt guide RNA/18-nt target DNA (crystal) (DNA:RNA)
RNA: UUACAACCUACUACCUCG
DNA: CGAGGTAGTAGGTTGTAA
modifications: 5'-phosphate on guide
As to B4, the binding result in data set [4] is listed as “binds”.

B5: 5'OH-RNA, FAM (ssRNA)
RNA: UUACAACCUACUACCUCG
modifications: 5'-OH
With B5, the dissociation constant Kd in data set [1] is 1140 ± 54 nM.

B6: 5'G-RNA, FAM (ssRNA)
RNA: GUACAACCUACUACCUCG
modifications: 5'-phosphate
In turn, B6 registered a Kd in data set [1] of 181 ± 13.3 nM. This Kd is about 6.3-fold lower than that of the molecule before.

B7: 5'P-DNA, FAM (ssDNA)
DNA: TTACAACCTACTACCTCG
modifications: 5'-phosphate
B7: the Kd in data set [1] is 42.6 ± 3.4 nM.

B8: 5'C-RNA, FAM (ssRNA)
RNA: CUACAACCUACUACCUCG
modifications: 5'-phosphate
In turn, B8 gave a Kd in data set [1] of 67 ± 3.5 nM. Compared with the last molecule, the Kd is about 1.6-fold higher.
